Laboratory results taken from patent WO2009041734A1 (dated 2009).

Columns and labels:
[1] = molecular target: T1, human thrombopoietin receptor (human c-Mpl) (human, UniProt P40238 26-635); assay: cell-based or functional assay
T1 sequence (looked up): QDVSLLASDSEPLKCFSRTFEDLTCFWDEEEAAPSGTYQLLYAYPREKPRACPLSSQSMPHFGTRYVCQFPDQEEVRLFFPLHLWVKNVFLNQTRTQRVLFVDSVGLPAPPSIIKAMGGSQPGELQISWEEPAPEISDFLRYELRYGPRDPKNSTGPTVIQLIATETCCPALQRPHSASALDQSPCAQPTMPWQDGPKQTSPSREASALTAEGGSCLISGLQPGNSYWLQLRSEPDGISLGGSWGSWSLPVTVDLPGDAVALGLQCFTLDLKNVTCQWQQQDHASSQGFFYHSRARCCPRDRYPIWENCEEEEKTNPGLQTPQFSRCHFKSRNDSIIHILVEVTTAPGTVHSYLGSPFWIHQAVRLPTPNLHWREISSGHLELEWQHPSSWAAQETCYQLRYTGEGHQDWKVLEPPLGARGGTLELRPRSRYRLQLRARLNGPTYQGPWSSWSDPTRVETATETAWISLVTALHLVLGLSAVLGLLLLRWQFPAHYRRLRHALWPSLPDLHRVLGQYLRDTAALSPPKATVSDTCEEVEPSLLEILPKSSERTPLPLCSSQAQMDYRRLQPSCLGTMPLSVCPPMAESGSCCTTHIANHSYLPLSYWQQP

[2] = molecular target: T1, human thrombopoietin receptor (human …); assay: flow cytometry on FM3A-hMpl cells, antibody at 1, 0.1, 0.01 ug/mL

B1: anti-human c-Mpl agonist antibody 4-49 (IgG1) (antibody, V domains shown)
VH: EEQLVESGGGLVQPGRSLRLSCTASGFTFDDYAMYWVRQVPGKGLEWVSGISWNSGSIGYADSVKGRFTVSRDNAKNSLYLQMNSLRAEDTALYYCAKALWFGEFPHYYGMDVWGQGTTVTVSS
VL: AIQLTQSPSSLSASVGDRVTITCRASQGISSTLAWYQQKPGKAPKLLIYDASSLESGVPSRFSGSGSGTDFTLTISSLQPEDFATYYCQQFNSYPYTFGQGTKLEIKR
[1]
  UT7/TPO (Max), maximum activity relative to PEG-rHuMGDF: > 80%

B2: anti-human c-Mpl agonist antibody 6-4-50 (IgG1) (antibody, V domains shown)
VH: EVQLVESGGGLVQPGRSLRLSCATSGFTFDNYAMYWVRQAPGKGLEWVSGISWNSGDIGYADSVKGRFTISRDNAKNSLYLQMNSLRAEDTALYYCARDAGFGEFHYGLDVWGQGTTVTVSS
VL: AIQLTQSPSSLSASVGDRVTITCRASQGISSALAWYQQKPGKVPKLLIYDASSLESGVPSRFSGSGSGTDFTLTISSLQPEDFATYYCQQFNSYPWTFGQGTKVEIKR
[1]
  UT7/TPO (Max), maximum activity relative to PEG-rHuMGDF: > 80%

B3: anti-human c-Mpl agonist antibody 7-10 (IgG1) (antibody, V domains shown)
VH: EVQLVESGGGLVQPGRSLRLSCAASGFTFDDYAMHWVRQAPGKGLEWVSGISWNSGSIGYADSVKGRFTISRDNAKNSLYLQMNSLRAEDTALYYCAKNLWFGEFRYWYFDLWGRGTLVTVSS
VL: AIQLTQSPSSLSASVGDRVTITCRASQGISSALAWYQQKPGKAPKLLIYDASSLESGVPSRFSGSGSGTDFTLTISSLQPEDFATYYCQQFNSYPLTFGGGTKVEIK
[1]
  UT7/TPO (Max), maximum activity relative to PEG-rHuMGDF: > 90%

B4: 7-10G4344uhm light chain mutant 7-10VL_Y94F (antibody, V domains shown)
VH: EVQLVESGGGLVQPGRSLRLSCAASGFTFDDYAMHWVRQAPGKGLEWVSGISWNSGSIGYADSVKGRFTISRDNAKNSLYLQMNSLRAEDTALYYCAKNLWFGEFRYWYFDLWGRGTLVTVSS
VL: AIQLTQSPSSLSASVGDRVTITCRASQGISSALAWYQQKPGKAPKLLIYDASSLESGVPSRFSGSGSGTDFTLTISSLQPEDFATYYCQQFNSFPLTFGGGTKVEIK
[1]
  agonist activity relative to 7-10G4344uhm, UT-7/TPO cell proliferation assay: ~0.1 fold of 7-10G4344uhm
[2]
  binding activity relative to 7-10G4344uhm: ~0.1 fold of 7-10G4344uhm

B5: anti-human c-Mpl agonist antibody 6-5-2 (IgG1) (antibody, V domains shown)
VH: EVQLVECGGGLVQPGRSLRLSCAASGFTFDDYAMHWVRQAPGKGLEWVSGISWNSGSIGYADSVKGRFTISRDNAKNSLYLQMNSLRAEDTALYYCAKPIWFGEWGNYYGMDVWGQGTTVTVSS
VL: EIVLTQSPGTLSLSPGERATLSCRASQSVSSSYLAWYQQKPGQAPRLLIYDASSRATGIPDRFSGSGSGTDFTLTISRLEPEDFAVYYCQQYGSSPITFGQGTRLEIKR
[1]
  UT7/TPO (Max), maximum activity relative to PEG-rHuMGDF: > 50%
